Results: the supplement of paper PMC10567573

B1: IKZF1 (parent)
chain: HIKLHSGEKPFKCHLCNYACRRRD
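Also: lentivirally expressed fusions sorted by FACS into six bins by GFP to DsRed ratio, PSI derived from sequencing read proportions per bin multiplied by bin number.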

Variants of: B1
Test: protein stability index of a GFP-peptide fusion (GPS, HEK-293T) (PSI 1-6); higher = more stable
Conditions: c terminus: a fixed tail appended
Variant HIKLHSGEKPFKMHLCNYACRRRD [C13M] has a protein stability index of 2.15. HIKLHSGEKPFKRHLCNYACRRRD [C13R] gave a protein stability index of 2.26. Variant HIKLHSGEKPFKFHLCNYACRRRD [C13F] has a protein stability index of 2.01. HIELHSGEKPFKCHLCNYACRRRD [K3E] showed a protein stability index of 1.8. In the case of HIQLHSGEKPFKCHLCNYACRRRD [K3Q], the protein stability index is reported as 2.03. Variant HISLHSGEKPFKCHLCNYACRRRD [K3S] has a protein stability index of 1.91. For HIWLHSGEKPFKCHLCNYACRRRD [K3W], the protein stability index was 2.73. With HIPLHSGEKPFKCHLCNYACRRRD [K3P] the protein stability index was 3.67. With HINLHSGEKPFKCHLCNYACRRRD [K3N] the protein stability index was 2.11. Work on HIILHSGEKPFKCHLCNYACRRRD [K3I] yielded a protein stability index of 1.61. HIALHSGEKPFKCHLCNYACRRRD [K3A] gave a protein stability index of 1.58. HIKLHSGEKPFFCHLCNYACRRRD [K12F] gave a protein stability index of 2.25. For HIKLHSGEKPFTCHLCNYACRRRD [K12T], the protein stability index was 1.68. With HIKLHSGEKPFCCHLCNYACRRRD [K12C] the protein stability index was 2.32. HIKLHSGEKPFMCHLCNYACRRRD [K12M] showed a protein stability index of 2.02. For HIKLHSGEKPFNCHLCNYACRRRD [K12N], the protein stability index was 1.67. With HKKLHSGEKPFKCHLCNYACRRRD [I2K] the protein stability index was 1.86. For HPKLHSGEKPFKCHLCNYACRRRD [I2P], the protein stability index was 2.13. Work on HMKLHSGEKPFKCHLCNYACRRRD [I2M] yielded a protein stability index of 2.6. For HTKLHSGEKPFKCHLCNYACRRRD [I2T], the protein stability index was 2.02. For HWKLHSGEKPFKCHLCNYACRRRD [I2W], the protein stability index was 2.22. Work on HIKLHSGEKPFKCHLCNYAPRRRD [C20P] yielded a protein stability index of 3.08. Variant HIKLHSGEKPFKCHLCNYAWRRRD [C20W] has a protein stability index of 2.83. With HIKLHSGEKPFKCHLCNYAQRRRD [C20Q] the protein stability index was 2.39. For HIKLHSGEKPFKCHLCNYARRRRD [C20R], the protein stability index was 1.96. HIKLHSGEKCFKCHLCNYACRRRD [P10C] gave a protein stability index of 1.76. HIKLHSGEKMFKCHLCNYACRRRD [P10M] gave a protein stability index of 1.58. HIKLHSGEKFFKCHLCNYACRRRD [P10F] gave a protein stability index of 1.91. Variant HIKLHSGEKPFKCHLCNYACRPRD [R22P] has a protein stability index of 1.86. Variant HIKLHSGEKPFKCHLCNYACRGRD [R22G] has a protein stability index of 1.5. Work on HIKLHSGEKPFKCHLCNYACQRRD [R21Q] yielded a protein stability index of 1.15. In the case of HIKLHSGEKPFKCHLCNYACSRRD [R21S], the protein stability index is reported as 1.99. In the case of HIKLHSGEKPFKCHLCNYACMRRD [R21M], the protein stability index is reported as 1.79. Work on HIKLHSGEKPFKCHLCLYACRRRD [N17L] yielded a protein stability index of 2.07. With HIKLHSGEKPFKCHLCPYACRRRD [N17P] the protein stability index was 1.56. HIKLHSGEKPFKCHLCQYACRRRD [N17Q] showed a protein stability index of 1.43. HIKLHSGEKPFKCHLCCYACRRRD [N17C] gave a protein stability index of 1.3. Work on HIKLHSGEKPFKCHLCWYACRRRD [N17W] yielded a protein stability index of 1.62. Work on HIKLHSGEKPFKCHLCYYACRRRD [N17Y] yielded a protein stability index of 1.52. HIKLHSGEKPFKCHLCKYACRRRD [N17K] showed a protein stability index of 1.2. Variant HIKLHSGEKPFKCHLCSYACRRRD [N17S] has a protein stability index of 1.97. With HIKLHSGLKPFKCHLCNYACRRRD [E8L] the protein stability index was 1.79. In the case of HIKLHSGMKPFKCHLCNYACRRRD [E8M], the protein stability index is reported as 1.63. Variant HIKLHSGSKPFKCHLCNYACRRRD [E8S] has a protein stability index of 2.22. In the case of HIKLHSGQKPFKCHLCNYACRRRD [E8Q], the protein stability index is reported as 1.56. For HIKLHSGEKPFKCHLCNYCCRRRD [A19C], the protein stability index was 1.64. With HIKLHSGEKPFKCHLCNYQCRRRD [A19Q] the protein stability index was 1.67. Variant HIKLHSGEKPFKCHLCNYNCRRRD [A19N] has a protein stability index of 2.27. Variant HIKLHSGEKPFKCHLCNYLCRRRD [A19L] has a protein stability index of 2. HIKLHSGEKPFKCHLCNYPCRRRD [A19P] showed a protein stability index of 1.71. HIKLLSGEKPFKCHLCNYACRRRD [H5L] showed a protein stability index of 1.7. Variant HIKLESGEKPFKCHLCNYACRRRD [H5E] has a protein stability index of 2.37. For HIKLQSGEKPFKCHLCNYACRRRD [H5Q], the protein stability index was 1.78. In the case of HIKLCSGEKPFKCHLCNYACRRRD [H5C], the protein stability index is reported as 2.77. In the case of HIKLHDGEKPFKCHLCNYACRRRD [S6D], the protein stability index is reported as 1.97. For HIKLHRGEKPFKCHLCNYACRRRD [S6R], the protein stability index was 2.24. In the case of HIKLHTGEKPFKCHLCNYACRRRD [S6T], the protein stability index is reported as 1.99. HIKLHFGEKPFKCHLCNYACRRRD [S6F] gave a protein stability index of 2.19. Variant HIKLHNGEKPFKCHLCNYACRRRD [S6N] has a protein stability index of 3.35. Variant HIKLHCGEKPFKCHLCNYACRRRD [S6C] has a protein stability index of 1.51. Variant HIKLHMGEKPFKCHLCNYACRRRD [S6M] has a protein stability index of 2.13. With HIKLHSGEKPFKCHLCNYACRRMD [R23M] the protein stability index was 2.4. With HIKLHSGEKPFKCHLCNYACRRAD [R23A] the protein stability index was 2.13. Work on HIKLHSGEKPFKCHLCNYACRRSD [R23S] yielded a protein stability index of 1.87. HIKLHSGEKPFKCHLCNYACRRKD [R23K] showed a protein stability index of 2.26. Work on HIKLHSGEKPFKCHLCNYACRRVD [R23V] yielded a protein stability index of 2.4. For HIKLHSGEKPFKCHLCNYACRRTD [R23T], the protein stability index was 1.48. HIKLHSGEKPFKCHLCNSACRRRD [Y18S] gave a protein stability index of 1.58. For HIKLHSGEKPFKCHLCNMACRRRD [Y18M], the protein stability index was 2.17. For HIKLHSGEKPFKCHLCNDACRRRD [Y18D], the protein stability index was 2.7. HIKLHSGEKPFKCHLCNAACRRRD [Y18A] gave a protein stability index of 2.04. Variant HIKLHSGEKPFKCHLANYACRRRD [C16A] has a protein stability index of 2.04. In the case of HIKLHSGEKPFKCHLDNYACRRRD [C16D], the protein stability index is reported as 2.98. Variant HIKLHSGEKPFKCHLFNYACRRRD [C16F] has a protein stability index of 2.05. HIKLHSGEKPFKCHLVNYACRRRD [C16V] gave a protein stability index of 1.81. With HIKLHSGEKPFKCHLPNYACRRRD [C16P] the protein stability index was 2.2. HIKLHSTEKPFKCHLCNYACRRRD [G7T] gave a protein stability index of 1.15. For HIKLHSIEKPFKCHLCNYACRRRD [G7I], the protein stability index was 1.68. In the case of HIKLHSYEKPFKCHLCNYACRRRD [G7Y], the protein stability index is reported as 2.25. Variant HIKLHSFEKPFKCHLCNYACRRRD [G7F] has a protein stability index of 2.21. For KIKLHSGEKPFKCHLCNYACRRRD [H1K], the protein stability index was 2.09. YIKLHSGEKPFKCHLCNYACRRRD [H1Y] showed a protein stability index of 1.95. DIKLHSGEKPFKCHLCNYACRRRD [H1D] showed a protein stability index of 1.59. For AIKLHSGEKPFKCHLCNYACRRRD [H1A], the protein stability index was 1.05. In the case of TIKLHSGEKPFKCHLCNYACRRRD [H1T], the protein stability index is reported as 1.17. NIKLHSGEKPFKCHLCNYACRRRD [H1N] gave a protein stability index of 2.73. Variant IIKLHSGEKPFKCHLCNYACRRRD [H1I] has a protein stability index of 1.5. With HIKLHSGEKPFKCHLCNYACRRRQ [D24Q] the protein stability index was 1.73. Work on HIKLHSGEKPFKCHLCNYACRRRC [D24C] yielded a protein stability index of 2.22. With HIKLHSGEKPFKCHLCNYACRRRM [D24M] the protein stability index was 1.97. HIKLHSGEKPFKCHLCNYACRRRP [D24P] showed a protein stability index of 2.09. Work on HIKLHSGEKPFKCHLCNYACRRRA [D24A] yielded a protein stability index of 2.29. HIKLHSGEKPFKCHLCNYACRRRS [D24S] gave a protein stability index of 1.43. Work on HIKLHSGEKPFKCHLCNYACRRRR [D24R] yielded a protein stability index of 2.22.
